Earlier results on one substance are cited in PMC5838028.

The target in this data set is glypican-3 (Homo sapiens) (UniProt P51654).
Sequence of glypican-3 (Homo sapiens) (P51654 359-554): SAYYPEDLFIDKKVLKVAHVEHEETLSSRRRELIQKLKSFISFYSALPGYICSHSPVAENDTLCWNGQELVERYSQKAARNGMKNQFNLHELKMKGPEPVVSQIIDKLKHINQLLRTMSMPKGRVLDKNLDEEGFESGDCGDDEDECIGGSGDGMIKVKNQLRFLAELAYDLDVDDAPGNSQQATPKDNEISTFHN

On to codrituzumab, for which the Kd was 673 pM.
